Positions count from the first letter of the chain named. Names and notes keep the numbering of the source. Values joined by “and” are separate entries in the source; they are usually repeats but may differ in a detail not shown here. Identical values can stand only once.
Tests used:
[1] = target: SpSMN/SpG2^ΔN80/SpG6/SpG7/SpG8^Δ35–58 complex (S. pombe) (UniProt Q09808); assay: SEC-SAXS; full length SpSMN complexes at various concentrations; molecular weight against the standard SpSMNΔ36–119S130D/SpG2ΔN80
[2] = target: the molecule itself; assay: SEC; gel filtration chromatography of MBP-YG-domain 252–284 fusion proteins
[3] = target: T1, HsG7^46–131 (human, UniProt Q9H840 46-131); assay: crystal structure; HsG6 1–92/HsG7 46–131/HsG8 190–230, 1.52 Å, PDB 7BBL; settings: both partners purified
T1 construct: human Gemin7, residues 46-131 (residues 47-131 in the model); also called human Gemin7 46-131; His6-HsG7^46–131; source: E. coli BL21(DE3), co-expressed with HsG6 1-92, purified
T1 sequence (looked up): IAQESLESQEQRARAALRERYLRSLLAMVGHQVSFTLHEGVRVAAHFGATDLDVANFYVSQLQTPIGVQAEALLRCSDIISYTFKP

[4] = target: the molecule itself; assay: SEC-SAXS; low concentrations (peak concentrations 5.8–16 μM); Superdex 200 10/300, 150 mM NaCl, 20 mM HEPES, 1 mM DTT, pH 7.5, 20°C
[5] = target: the molecule itself; assay: SEC-SAXS; full length SpSMN complexes at various concentrations; molecular weight against the standard SpSMNΔ36–119S130D/SpG2ΔN80

Molecule: SpSMN/SpG2^ΔN80/SpG6/SpG7/SpG8^Δ35–58 complex (from UniProt Q09808 1-152; P0CU08 81-235)
- stoichiometry N [1]: 4

B1: MBP-Hs-YG-domain^252–284 (wt) (domain or fragment, human, UniProt Q16637 252-284, looked up)
chain: DSLDDADALGSMLISWYMSGYHTGYYMGFRQNQ
notes: human SMN, YG-domain, residues 252-284; vector pETM-41; also called MBP fusion of human YG-box^252–284; wild-type construct; source: E. coli BL21(DE3), purified; immobilized on Amylose resin for the pull-down
- binding result [2]: binds

B2: MBP-Hs-YG-domain^252–284 H273R (domain or fragment, human, UniProt Q16637 252-284, looked up)
chain: B1 chain with H22R
notes: human SMN, YG-domain, residues 252-284, SMA-causing missense mutation H273R; source: E. coli BL21(DE3), purified; immobilized on Amylose resin for the pull-down
- binding result [2]: binds

B3: HsG8^190–230 (domain or fragment, human, UniProt Q9NWZ8 190-230, looked up)
chain: TERPGERRQAEMKRLYGDSAAKIQAMEAAVQLSFDKHCDRK
notes: human Gemin8, residues 190-230 (also printed as 191-230; residues 191-227 in the model); also called HsG8^191–230; human Gemin8 C-terminus; source: E. coli BL21(DE3), purified (Glutathione Sepharose, PreScission); not shown: His6, N-terminal, cleaved; GST, N-terminal, cleaved
- binding result [3]: binds

B4: SpSMN^Δ36–119S130D/SpG2^ΔN80 complex (complex, S. pombe)
chain 1: MDQSQKEVWDDSELRNAFETALHEFKKYHSIEAKGYDETYKKLIMDWYYAGYYTGLAEGLAKSEQRKD
chain 2: RKLEIEAGKKSFDPFLRYLLNIIDKEGERLEQYMESSSLDASILPKNLQQWRVYIEHKAPCWAILAVVDLATVLEILESLSSWLEKDAIDLQSQWIFCFCYKLPELLNGEDISTLRSVLKSLRSTHTSFPALQMSASALQAVLVYRYGQKDLFQT
notes: Gemin2 of Schizosaccharomyces pombe (SpG2) lacking the N-terminus (ΔN80); also called S130D mutant; source: E. coli BL21(DE3), co-expressed (SpSMNΔ36–119S130D/His6-SpG2ΔN80), purified (Ni-NTA, TEV, dialysis); not shown: His6, N-terminal, cleaved
- stoichiometry N [4]: 2

B5: SpSMN^Δ36–119A134E/SpG2^ΔN80 complex (complex, S. pombe)
chain 1: B4 chain 1 with D46S, A50E
chain 2: B4 chain 2
notes: Gemin2 of Schizosaccharomyces pombe (SpG2) lacking the N-terminus (ΔN80); also called A134E mutant; source: E. coli BL21(DE3), co-expressed (SpSMNΔ36–119A134E/His6-SpG2ΔN80), purified (Ni-NTA, TEV, dialysis); not shown: His6, N-terminal, cleaved
- stoichiometry N [4]: 2

B6: SpSMN/SpG2^ΔN80 complex (complex, S. pombe)
chain 1: MDQSQKEVWDDSELRNAFETALHEFKKYHSIEAKGGVSDPDSRLDGEKLISAARTEESISKLEEGEQMINQQTETTLEGDTHIQQFADNKGLSDEKPETRAAETHQEFMEVPPPIRGLTYDETYKKLIMSWYYAGYYTGLAEGLAKSEQRKD
chain 2: B4 chain 2
notes: SMN of Schizosaccharomyces pombe (SpSMN); Gemin2 of Schizosaccharomyces pombe (SpG2) lacking the N-terminus (ΔN80); source: E. coli BL21(DE3), co-expressed (SpSMN/His6-SpG2ΔN80), purified (Ni-NTA, TEV, dialysis); not shown: His6, N-terminal, cleaved
- stoichiometry N [5]: 6 and 8

From article PMC8287938, “Identification and structural analysis of the Schizosaccharomyces pombe SMN complex” (Nucleic Acids Research, 2021)
